This note sets out measurements from patent US20100143368A1 (Bristol-Myers Squibb, published 2010).

Usually Kd stands for the free concentration of one partner at which half of the binding sites on the other are occupied at equilibrium, for simple one-to-one binding. Broadly, the EC50 (read off the curve) is the midpoint of the concentration-response curve. High values mean a less potent agent, low ones a more potent agent.

Experiment [1] deals with T1, recombinant human CD22 extracellular domain with C-terminal hexahistidine tag (human, UniProt P20273 20-687).
T1 construct: The whole entry is named here; also called CD22 ECD; CD22β extracellular domain
T1 sequence: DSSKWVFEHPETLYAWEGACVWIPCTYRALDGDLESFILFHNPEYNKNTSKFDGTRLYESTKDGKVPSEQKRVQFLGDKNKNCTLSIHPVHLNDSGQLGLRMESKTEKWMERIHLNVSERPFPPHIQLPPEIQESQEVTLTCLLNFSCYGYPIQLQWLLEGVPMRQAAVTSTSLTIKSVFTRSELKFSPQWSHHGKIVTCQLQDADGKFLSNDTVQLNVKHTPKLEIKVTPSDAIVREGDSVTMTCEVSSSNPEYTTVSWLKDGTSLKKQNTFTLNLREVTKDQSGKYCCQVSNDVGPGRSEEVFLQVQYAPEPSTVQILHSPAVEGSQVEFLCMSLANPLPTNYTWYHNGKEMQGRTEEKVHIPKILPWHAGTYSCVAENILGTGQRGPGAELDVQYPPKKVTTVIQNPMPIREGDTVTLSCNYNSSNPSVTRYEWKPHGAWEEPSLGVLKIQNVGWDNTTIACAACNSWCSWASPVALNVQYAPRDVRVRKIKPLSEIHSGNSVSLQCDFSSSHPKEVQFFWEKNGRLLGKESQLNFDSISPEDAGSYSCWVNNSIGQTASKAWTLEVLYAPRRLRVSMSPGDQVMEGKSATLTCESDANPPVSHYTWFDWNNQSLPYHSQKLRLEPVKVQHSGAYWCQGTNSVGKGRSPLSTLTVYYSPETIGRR
Put plainly: SPR (BIAcore 3000); CD22 ECD-His captured by anti-His mAb on CM5 chip, antibody injected at 20 µg/mL. How it is done:
For determination of antibody affinity (KD), experiments were performed in which the CD22 antigen was captured on a BIAcore chip using an antibody to the His tag present on the antigen. Anti-His monoclonal antibody ab15149 (Abcam, Stock conc.0.5 mg/mL) was coated on a CM5 chip at high density (3500RUs), as recommended by the manufacturer. CD22 ECD (6.6 μg/mL) was captured on this surface for 60 sec at a flow-rate of 6 μL/min. A single concentration (20 μg/mL) of anti-CD22 purified mAbs was injected over the captured antigen with an association time of 5 minutes and a dissociation time of 8 minutes, at a flow rate of […]. The chip surface was regenerated after each cycle with 10 μL of 25 mM NaOH. Isotype controls were run on the chip and the data used to subtract non-specific binding. All experiments were carried out on a BIAcore 3000 surface plasmon resonance instrument, using BIAcore Control software v 3.2. Data analysis was carried out using BiaEvaluation v. 3.2 software.
Fourteen of the selected anti-CD22 antibodies were tested in the affinity experiment.

Experiment [2] has as its target T2, full-length human CD22 expressed on the cell surface (human, UniProt P20273 20-847).
T2 construct: One molecule is used both for CHO transfectants with the full-length CD22 cDNA and for endogenous CD22 on Raji/Daudi cells; also called CHO-CD22; CHO cells transfected with full-length CD22
T2 sequence (looked up): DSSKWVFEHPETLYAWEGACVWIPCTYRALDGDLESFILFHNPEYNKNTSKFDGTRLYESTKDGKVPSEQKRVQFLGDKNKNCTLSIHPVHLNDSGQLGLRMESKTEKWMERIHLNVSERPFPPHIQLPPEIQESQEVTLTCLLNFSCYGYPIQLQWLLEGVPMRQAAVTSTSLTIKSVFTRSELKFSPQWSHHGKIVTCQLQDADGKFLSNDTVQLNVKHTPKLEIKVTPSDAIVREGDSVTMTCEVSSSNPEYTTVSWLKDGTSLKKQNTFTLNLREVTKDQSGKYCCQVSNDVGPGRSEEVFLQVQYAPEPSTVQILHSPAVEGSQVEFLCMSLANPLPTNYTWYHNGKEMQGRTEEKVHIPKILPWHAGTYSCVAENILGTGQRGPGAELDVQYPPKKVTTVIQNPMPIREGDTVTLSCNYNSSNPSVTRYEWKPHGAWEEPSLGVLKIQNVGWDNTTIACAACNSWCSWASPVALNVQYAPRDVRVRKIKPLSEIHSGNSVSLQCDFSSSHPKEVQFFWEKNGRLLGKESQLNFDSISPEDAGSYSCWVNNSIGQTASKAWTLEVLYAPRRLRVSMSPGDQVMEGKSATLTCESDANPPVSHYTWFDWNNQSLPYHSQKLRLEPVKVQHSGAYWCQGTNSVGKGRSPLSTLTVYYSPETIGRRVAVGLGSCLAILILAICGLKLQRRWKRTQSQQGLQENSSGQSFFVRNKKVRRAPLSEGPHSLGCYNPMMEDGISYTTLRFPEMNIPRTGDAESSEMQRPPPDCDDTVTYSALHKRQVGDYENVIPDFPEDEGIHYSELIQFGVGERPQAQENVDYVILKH
Put plainly: flow cytometry (FACS Array) on CHO cells transfected with full-length CD22, goat anti-human IgG-PE. For orientation: Flow cytometry measures light scatter and fluorescence of single cells or particles in a stream.

Positions count from the first letter of the chain named. Names may count otherwise.

B1: anti-CD22 human monoclonal antibody 12C5 (antibody, IgG1, V domains shown)
VH: QVQLVQSGSELKKPGASVKVSCKASGYTFTSYAMNWVRQAPGQGLEWMGWINTNTGNPTYAQGFTGRFVFSLDTSVSTAYLQISSLKAEDTAVYYCARLFYYYFGMDVWGQGTTVTVSS
VL: QSALTQPASVSGSPGQSITISCTGTSSDVGSYNLVSWYQLHPGKAPKLMIYEVSKRPSGVSNRFSGSRSGNTASLTISGLQAEDEADYYCCSYANSSTLVFGGGTKLTVL
notes: Hybridoma-derived
Turning to B1, in experiment [1], the Kd amounted to 0.23 nM.

B2: recombinant human anti-CD22 monoclonal antibody CD22.1 (antibody, human IgG1, V domains shown)
VH: QVQLQQWGAGLLKPSETLSLTCAVYGRSFSSYYWSWIRQPPGKGLEWIGDINHSGSTNYNPSLKSRVTISVDTSKNQFSLKLSSVTAADTAVYYCAGTFYDILTGYYPLGYWGPGTLVTVSS
VL: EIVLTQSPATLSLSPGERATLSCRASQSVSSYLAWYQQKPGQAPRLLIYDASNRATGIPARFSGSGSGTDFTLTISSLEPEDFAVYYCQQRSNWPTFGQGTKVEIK
notes: also called 19A3 expressed in CHO cells (clone 8G9)
As to B2, in experiment [2], the “EC50 (read off the curve)” value is about 0.3 µg/mL.

B3: anti-CD22 human monoclonal antibody 19A3 (antibody, IgG1, V domains shown)
VH: B2 VH
VL: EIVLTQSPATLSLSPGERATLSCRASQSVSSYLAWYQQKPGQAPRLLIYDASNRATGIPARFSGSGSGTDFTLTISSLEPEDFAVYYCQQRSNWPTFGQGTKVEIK
notes: Hybridoma-derived; also called parental antibody 19A3
Regarding B3, the equilibrium dissociation constant (Kd) in experiment [1] was found to be 0.15 nM.

B4: recombinant human anti-CD22 monoclonal antibody CD22.2 (antibody, human IgG1, V domains shown)
VH: B2 VH with N52Q
VL: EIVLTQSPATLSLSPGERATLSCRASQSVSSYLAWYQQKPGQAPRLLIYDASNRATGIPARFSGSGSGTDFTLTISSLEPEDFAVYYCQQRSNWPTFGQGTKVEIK
notes: Variant of 19A3 with N57Q, which removes the N-glycosylation site in VH CDR2; also called 19A3 VH N57Q variant (clone 17E11)
In the case of B4, the “EC50 (read off the curve)” value in experiment [2] is about 0.3 µg/mL.
